Experimental data from ChEMBL document CHEMBL2073859, “Transport of 7-ethyl-10-hydroxycamptothecin (SN-38) by breast cancer resistance protein ABCG2 in human lung cancer cells” (Biochem Biophys Res Commun, 2001).

What was measured:
[1] = substrate: CCc1c2c(nc3ccc(OC[C@@H]4O[C@H](C(=O)O)[C@@H](O)[C@H](O)[C@H]4O)cc13)-c1cc3c(c(=O)n1C2)COC(=O)[C@]3(O)CC; assay: (§1) TP_TRANSPORTER: uptake in membrane vesicle from PC-6/SN2-5H cells; assay type: functional, cell membranes
[2] = substrate: CCc1c2c(nc3ccc(O)cc13)-c1cc3c(c(=O)n1C2)COC(=O)[C@]3(O)CC; assay: as §1; assay type: functional, cell membranes

B1: Broad substrate specificity ATP-binding cassette transporter ABCG2 (Homo sapiens) (protein)
chain: MSSSNVEVFIPVSQGNTNGFPATASNDLKAFTEGAVLSFHNICYRVKLKSGFLPCRKPVEKEILSNINGIMKPGLNAILGPTGGGKSSLLDVLAARKDPSGLSGDVLINGAPRPANFKCNSGYVVQDDVVMGTLTVRENLQFSAALRLATTMTNHEKNERINRVIQELGLDKVADSKVGTQFIRGVSGGERKRTSIGMELITDPSILFLDEPTTGLDSSTANAVLLLLKRMSKQGRTIIFSIHQPRYSIFKLFDSLTLLASGRLMFHGPAQEALGYFESAGYHCEAYNNPADFFLDIINGDSTAVALNREEDFKATEIIEPSKQDKPLIEKLAEIYVNSSFYKETKAELHQLSGGEKKKKITVFKEISYTTSFCHQLRWVSKRSFKNLLGNPQASIAQIIVTVVLGLVIGAIYFGLKNDSTGIQNRAGVLFFLTTNQCFSSVSAVELFVVEKKLFIHEYISGYYRVSSYFLGKLLSDLLPMRMLPSIIFTCIVYFMLGLKPKADAFFVMMFTLMMVAYSASSMALAIAAGQSVVSVATLLMTICFVFMMIFSGLLVNLTTIASWLSWLQYFSIPRYGFTALQHNEFLGQNFCPGLNATGNNPCNYATCTGEEYLVKQGIDLSPWGLWKNHVALACMIVIFLTIAYLKLLFLKKYS
B1 showed a Km [1] of 26 µM and a Km [2] of 4 µM.
